# Target: membrane-bound HLA-A0201 molecule on T2 cells (human)
# Assay: T2 cell HLA-A0201 stabilisation at 125.0 µM peptide, BB7.2 staining, flow cytometry
# Conditions: remark: other sources report otherwise
binder,measurement,value
VLAGGFFLL [CLP-328],Fluorescence Index (FI),1.3 FI
ELAHYDVLL [CLP-330],Fluorescence Index (FI),0.7 FI

# Source: patent US20030027246A1, “Immunogenic peptides derived from prostate-specific membrane antigen (PSMA) and uses thereof” (priority 2000, published 2003)
